The record followed here is patent US20260207732A1.

Experiment [1] addresses control (H1 Bri18 wild type HA ectodomain-foldon) (Influenza A virus A/Brisbane/02/2018 (H1N1)). Description: BLI (Octet) after 7D37C and trypsin; HA on Ni-NTA tips.
For experiment [2] the target is unchanged. Description: BLI (Octet), HA-foldon-His on Ni-NTA tips, IgG in solution.

CR9114 monoclonal antibody (IgG): the Octet response (nm) came out at 0.693 nm in experiment [1] and 0.826 nm in experiment [2].
In the same order, the values of FI6v3 monoclonal antibody (IgG) are 0.697 nm and 0.856 nm.
